In PMC5844954:

Columns and labels:
[1] = target: human LGN TPR domain, fragment 15-350 (human); test: SEC; purified co-expressed complexes on a size-exclusion column with globular markers, Coomassie SDS-PAGE of peak fractions
[2] = target: human LGN TPR domain, residues 1-350, FLAG-tagged (and a GFP-tagged copy) (human); test: co-IP; HEK293T co-transfected with FLAG-LGN^TPR, GFP-LGN^TPR and GFP-Insc^ASYM-ΔαB; anti-FLAG M2 sepharose beads, modified JS buffer, 1 h at 4 °C
Chain of human LGN TPR domain, residues 1-350, FLAG-tagged (and a GFP-tagged copy) (human) (P81274 1-350): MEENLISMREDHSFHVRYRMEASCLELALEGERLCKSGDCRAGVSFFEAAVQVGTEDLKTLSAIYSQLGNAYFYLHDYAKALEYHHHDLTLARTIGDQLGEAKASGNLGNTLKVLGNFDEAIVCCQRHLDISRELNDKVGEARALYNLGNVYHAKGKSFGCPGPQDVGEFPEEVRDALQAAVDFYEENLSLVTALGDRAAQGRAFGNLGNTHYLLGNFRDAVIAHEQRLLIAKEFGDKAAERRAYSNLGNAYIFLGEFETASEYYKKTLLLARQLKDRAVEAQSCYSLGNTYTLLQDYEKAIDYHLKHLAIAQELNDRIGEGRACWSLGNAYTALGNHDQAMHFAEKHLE

B1: human 6His-tagged full-length Insc (residues 1-532) (natural protein)
chain: MMALPGGRHLDSVTLPGQRLHLMQVDSVQRWMEDLKLMTECECMCVLQAKPISLEEDAQGDLILAGGPGPGDPLQLLLKRGWVISTELRRIGQKLAQDRWARVHSMSVRLTCHARSMVSEYSAVSRNSLKEMGEIEKLLMEKCSELSAVTERCLQVENEHVLKSMKACVSETLSMLGQHFGQLLELALTREVQALVRKIDASDNIYTTESTTGNLFSLTQEGAPLCRIIAKEGGVVALFKVCRQDSFRCLYPQALRTLASICCVEEGVHQLEKVDGVLCLADILTDNSHSEATRAEAAAVVAQVTSPHLPVTQHLSSFLESMEEIVTALVKLCQEASSGEVFLLASAALANITFFDTMACEMLLQLNAIRVLLEACSDKQRVDTPYTRDQIVTILANMSVLEQCASDIIQENGVQLIMGMLSEKPRSGTPAEVAACERVQQKAAVTLARLSRDPDVAREAVRLSCMSRLIELCRSPSERNSSDAVLVACLAALRRLAGVCPEGLQDSDFQQLVQPRLVDSFLLCSNMEESFV
Which stoichiometry N (Insc per LGN (2:2)) [1] does the source give for B1 here?
Its stoichiometry N (Insc per LGN (2:2)) is 1.

B2: human GFP-Insc^ASYM-ΔαB (Insc^ASYM lacking residues 62-191) (domain or fragment)
chain: MMALPGGRHLDSVTLPGQRLHLMQVDSVQRWMEDLKLMTECECMCVLQAKPISLEEDAQGDVQALVRKIDASDNIYTTESTTGNLFSLTQEGAPLCRIIAKEGGVVALFKVCRQDSFRCLYPQALRTLASICCVEEGVHQLEKVDGVLCLADILTDNSHSEATRAEAAAVVAQVTSPHLPVTQHLSS
Which stoichiometry N (Insc per LGN (1:1)) [2] does the source give for B2 here?
The stoichiometry N (Insc per LGN (1:1)) was 1.
